The text below walks through data of publication PMC2765437.

Data set [1] concerns chimeric MuLV RT (MHCI RT; MuLV RT polymerase domain + HIV-1 RT RNase H domain) (MuLV / HIV-1 chimera). Kind of data set: EMSA. Conditions: 50 mM Tris-HCl pH 7.8, 60 mM KCl, 1 mM DTT, 0.01% NP40, 10% glycerol; 5 nM labeled template-primer, 10 uL; 6% native gel in Tris-borate pH 8.2 run at 4 C …. (In general: A gel shift assay detects complexes by their altered migration in electrophoresis.)

Data set [2] deals with chimeric HIV-1 RT (HIV-1 RT polymerase domain + MuLV RT RNase H domain) (HIV-1 / MuLV chimera). The data set can be described thus: EMSA. Conditions: 50 mM Tris-HCl pH 7.8, 60 mM KCl, 1 mM DTT, 0.01% NP40, 10% glycerol; 5 nM labeled template-primer, 10 uL; 6% native gel in Tris-borate pH 8.2 run at 4 C ….
The subject of data set [3] is M-pol (MuLV RT polymerase domain) (MuLV). The data set can be described thus: EMSA. Conditions: 50 mM Tris-HCl pH 7.8, 60 mM KCl, 1 mM DTT, 0.01% NP40, 10% glycerol; 5 nM labeled template-primer, 10 uL; 6% native gel in Tris-borate pH 8.2 run at 4 C ….
Data set [4] relates to wild-type MuLV RT (MuLV). The data set can be described thus: EMSA. The following applies: 50 mM Tris-HCl pH 7.8, 60 mM KCl, 1 mM DTT, 0.01% NP40, 10% glycerol; 5 nM labeled template-primer, 10 uL; 6% native gel in Tris-borate pH 8.2 run at 4 C ….
For data set [5], the system named is wild-type HIV-1 RT (p66/66) (HIV-1). Kind of data set: EMSA. The following applies: 50 mM Tris-HCl pH 7.8, 60 mM KCl, 1 mM DTT, 0.01% NP40, 10% glycerol; 5 nM labeled template-primer, 10 uL; 6% native gel in Tris-borate pH 8.2 run at 4 C ….
Data set [6] concerns the target wild-type p66/66 HIV-1 RT (human immunodeficiency virus type 1 reverse transcriptase) (human immunodeficiency virus type 1). Kind of data set: glycerol gradient ultracentrifugation; 50 micrograms of each enzyme alone on 5 ml of 10%-30% linear glycerol gradient in 50 mM Tris HCl pH 8.0, 400 mM NaCl; 48,000 rpm, 20-24 h, SW 50.1 rotor; fractions from the bottom analysed by SDS-PAGE and Coomassie blue.

pKd: −log10 of the molar value.

“49-mer DNA template / 17-mer PBS DNA primer”: the negative logarithm of the Kd (pKd) in data set [1] was 8.48; in data set [2], 8.82; in data set [3], 8.92; in data set [4] it was 8.57; in data set [5], 8.49.
With “wild-type p66/66 HIV-1 RT (human immunodeficiency virus type 1 reverse transcriptase) (enzyme)”, in data set [6], the stoichiometry N came to 2.

By pKd is commonly meant −log10 of the Kd, conventionally taken in molar units. The term stoichiometry N denotes a count of units in the complex or per binding partner.
